According to patent US7217865B2, “Transgenic high tryptophan plants” (Monsanto Technology LLC, priority 2001, dated 2007):
Where two headings read alike, the source gives them in different places.

Key:
[1] = tested on: C=C(O[C@@H]1C=C(C(=O)O)C=C[C@H]1O)C(=O)O; test: Anthranilate synthase enzyme assay and kinetic analysis, wild type; type: biochemical, Agrobacterium tumefaciens; conditions: other: wild type, 25° C., pH 7.0, 10 mM L-glutamine, 2.5–100 μM chorismate
Description: (§1) Agrobacterium tumefaciens AS wild type and mutant enzymes were expressed in E. coli as described in Example 1. The purification of all the Agrobacterium tumefaciens AS enzymes, including wild type and mutants therof, was performed at 4° C. The cells (approximate wet weight of 1 g) were suspended in 20 ml of purification buffer (50 mM potassium phosphate, pH […], 10 mM 2-mercaptoethanol, 10% glycerol) and lysed by ultrasonication (Branson sonifier Cell Disruptor, W185). Supernatant was collected after centrifugation of the homogenate at 20,000× g for 15 min. The supernatant was subjected to ammonium sulfate fractionation (30 to 65% saturation). The precipitate was collected after centrifugation at 20,000× g for […] and dissolved in 3 ml of the purification buffer and then loaded as a whole on an Econo-Pac 10DG desalting column, pre-equilibrated with the same buffer. Fractions containing the enzyme were detected by the developed assay and pooled. The pooled enzyme (4.3 mls) was loaded on a 10 ml DEAE Sephacel (Pharmacia Biotech) column (1.5×7.5 cm) equilibrated with the same buffer. The column was washed with 30 ml of the purification buffer and the enzyme was eluted with 30 ml of 50 mM NaCl in the same buffer. Fractions containing high AS activity were pooled and precipitated by 65% ammonium sulfate saturation and isolated and desalted as above. Fractions containing the enzyme were pooled and stored at −80° C.
(§2) The standard assay for Agrobacterium tumefaciens AS was performed at 25° C. in an assay buffer containing 100 mM potassium phosphate, pH 7.0, 1 0 mM MgCl2, 1 mM dithiothreitol, 200 μM chorismate and 10 mM L-glutamine. The reaction was started by adding 30 μl of enzyme to the reaction mixture and mixing. The formation of anthranilate was directly monitored by the absorbance increase at […] for 3 min. Initial rate of reaction was calculated as unit absorbance increase per second based on the slope of the absorbance change over the reaction time. Km for chorismate (Km^Cho) was determined in the total volume of 1 ml assay buffer containing 100 mM potassium phosphate, pH 7.0, 10 mM MgCl2, 1 mM dithiothreitol with 10 mM L-glutamine and varying the concentration of chorismate between 2.5–100 μM chorismate. The Km for glutamine (Km^Gln) was determined in the total volume of 1 ml assay buffer containing 100 mM potassium phosphate, pH 7.0, 10 mM MgCl2, 1 mM dithiothreitol with 200 μM chorismate and varying the concentration of L-glutamine between 0.1–2 mM L-glutamine. IC50 for tryptophan (IC50TrP) was determined with in the total volume of 1 ml assay buffer containing 100 mM potassium phosphate, pH 7.0, 10 mM MgCl2, 1 mM dithiothreitol, 10 mM L-glutamine, 200 μM chorismate and varying the concentration of L-tryptophan between 0.1–10 mM L-tryptophan. Kinetic parameters and IC50 of AS were calculated after fitting the data to a non-linear regression program (GraFit).

[2] = tested on: NC(=O)CC[C@H](N)C(=O)O; test: as above; type: biochemical, Agrobacterium tumefaciens; conditions: other: wild type, pH 7.0, 200 μM chorismate, 0.1–2 mM L-glutamine, 25.0 °C
Description: as §1, §2

[3] = tested on: C=C(O[C@@H]1C=C(C(=O)O)C=C[C@H]1O)C(=O)O; test: Anthranilate synthase enzyme assay and kinetic analysis, N52F mutant; type: biochemical, Agrobacterium tumefaciens; conditions: other: N52F, pH 7.0, 10 mM L-glutamine, 2.5–100 μM chorismate, 25.0 °C
Source text: (§3) Site directed mutagenesis was used to generate ten single amino acid substitutions six sites. The mutations were introduced into the Agrobacterium tumefaciens AS in pMON34705 using the QuikChange™ Site-Directed Mutagenesis Kit (Stratagene). The primers used for site directed mutagenesis were SEQ ID NO:9–42 (FIG. 7; F=forward, R=reverse). Each primer sequence is specific for alteration of the nucleic acid at a specific location in the sequence and thus changing the encoded codon to code for a new amino acid. For example, S51C designates a change from serine to cysteine at amino acid position 51 in the Agrobacterium tumefaciens AS peptide sequence.
(§4) Following mutagenesis the sequence of the entire gene was reconfirmed and the variants expressed and purified from E. coli as described below for the wild type enzyme. The resultant plasmids comprising mutant Agrobacterium tumefaciens AS are suitably cloned into a plasmid for overproduction of protein using the T7 expression system as described in Example 1.
as §1
(§5) The standard assay for Agrobacterium tumefaciens AS was performed at 25° C. in an assay buffer containing 100 mM potassium phosphate, pH 7.0, 1 0 mM MgCl2, 1 mM dithiothreitol, 200 μM chorismate and 10 mM L-glutamine. The reaction was started by adding 30 μl of enzyme to the reaction mixture and mixing. The formation of anthranilate was directly monitored by the absorbance increase at […] for 3 min. Initial rate of reaction was calculated as unit absorbance increase per second based on the slope of the absorbance change over the reaction time. Km for chorismate (Km^Cho) was determined in the total volume of 1 ml assay buffer containing 100 mM potassium phosphate, pH 7.0, 10 mM MgCl2, 1 mM dithiothreitol with 10 mM L-glutamine and varying the concentration of chorismate between 2.5–100 μM chorismate. […] Kinetic parameters and IC50 of AS were calculated after fitting the data to a non-linear regression program (GraFit).

[4] = tested on: NC(=O)CC[C@H](N)C(=O)O; test: as above; type: biochemical, Agrobacterium tumefaciens; conditions: other: N52F, pH 7.0, 200 μM chorismate, 0.1–2 mM L-glutamine, 25.0 °C
Source text: as §3, §4, §1, §5

[5] = tested on: C=C(O[C@@H]1C=C(C(=O)O)C=C[C@H]1O)C(=O)O; test: Anthranilate synthase enzyme assay and kinetic analysis, P293A mutant; type: biochemical, Agrobacterium tumefaciens; conditions: other: P293A, pH 7.0, 10 mM L-glutamine, 2.5–100 μM chorismate, 25.0 °C
Source text: as §3, §4, §1, §5

[6] = tested on: NC(=O)CC[C@H](N)C(=O)O; test: as above; type: biochemical, Agrobacterium tumefaciens; conditions: other: P293A, pH 7.0, 200 μM chorismate, 0.1–2 mM L-glutamine, 25.0 °C
Source text: as §3, §4, §1, §5

[7] = tested on: C=C(O[C@@H]1C=C(C(=O)O)C=C[C@H]1O)C(=O)O; test: Anthranilate synthase enzyme assay and kinetic analysis, P293G mutant; type: biochemical, Agrobacterium tumefaciens; conditions: other: P293G, pH 7.0, 10 mM L-glutamine, 2.5–100 μM chorismate, 25.0 °C
Source text: as §3, §4, §1, §5

[8] = tested on: NC(=O)CC[C@H](N)C(=O)O; test: as above; type: biochemical, Agrobacterium tumefaciens; conditions: other: P293G, pH 7.0, 200 μM chorismate, 0.1–2 mM L-glutamine, 25.0 °C
Source text: as §3, §4, §1, §5

[9] = tested on: C=C(O[C@@H]1C=C(C(=O)O)C=C[C@H]1O)C(=O)O; test: Anthranilate synthase enzyme assay and kinetic analysis, S50K mutant; type: biochemical, Agrobacterium tumefaciens; conditions: other: S50K, pH 7.0, 10 mM L-glutamine, 2.5–100 μM chorismate, 25.0 °C
Source text: as §3, §4, §1, §5

[10] = tested on: NC(=O)CC[C@H](N)C(=O)O; test: as above; type: biochemical, Agrobacterium tumefaciens; conditions: other: S50K, pH 7.0, 200 μM chorismate, 0.1–2 mM L-glutamine, 25.0 °C
Source text: as §3, §4, §1, §5

[11] = tested on: C=C(O[C@@H]1C=C(C(=O)O)C=C[C@H]1O)C(=O)O; test: Anthranilate synthase enzyme assay and kinetic analysis, S51C mutant; type: biochemical, Agrobacterium tumefaciens; conditions: other: S51C, pH 7.0, 10 mM L-glutamine, 2.5–100 μM chorismate, 25.0 °C
Source text: as §3, §4, §1, §5

[12] = tested on: NC(=O)CC[C@H](N)C(=O)O; test: as above; type: biochemical, Agrobacterium tumefaciens; conditions: other: S51C, pH 7.0, 200 μM chorismate, 0.1–2 mM L-glutamine, 25.0 °C
Source text: as §3, §4, §1, §5

[13] = tested on: C=C(O[C@@H]1C=C(C(=O)O)C=C[C@H]1O)C(=O)O; test: Anthranilate synthase enzyme assay and kinetic analysis, S51F mutant; type: biochemical, Agrobacterium tumefaciens; conditions: other: S51F, pH 7.0, 10 mM L-glutamine, 2.5–100 μM chorismate, 25.0 °C
Source text: as §3, §4, §1, §5

[14] = tested on: NC(=O)CC[C@H](N)C(=O)O; test: as above; type: biochemical, Agrobacterium tumefaciens; conditions: other: S51F, pH 7.0, 200 μM chorismate, 0.1–2 mM L-glutamine, 25.0 °C
Source text: as §3, §4, §1, §5

[15] = tested on: Agrobacterium tumefaciens AS; test: Anthranilate synthase enzyme assay and kinetic analysis of purified enzymes; type: biochemical; conditions: for IC50: inhibition by L-tryptophan
Description: as §1, §2

[16] = Km for chorismate, 10 mM L-glutamine, pH 7.0, 25° C., read-out: Km^Cho
[17] = Km for glutamine, 200 μM chorismate, pH 7.0, read-out: Km^Gln
[18] = 10 mM L-glutamine, 200 μM chorismate

In the case of “Agrobacterium tumefaciens anthranilate synthase (AgroAS), wild type, SEQ ID NO:4 (Agrobacterium fabrum str. C58)”, the Km [1] is reported as 8.0 µM, the kcat [1] is reported as 0.43 s⁻¹ and the kcat/Km [1] is reported as 53700 M⁻¹ s⁻¹. The Km [2] was 110 µM.

For “Agrobacterium tumefaciens anthranilate synthase variant N52F, SEQ ID NO:62 (Agrobacterium fabrum str. C58; N52F)”, the Km [3] was 5.5 µM, the kcat [3] was 0.21 s⁻¹ and the kcat/Km [3] was 38200 M⁻¹ s⁻¹. The Km [4] was 40 µM.

For “Agrobacterium tumefaciens anthranilate synthase variant P293A, SEQ ID NO:63 (Agrobacterium fabrum str. C58; P293A)”, the Km [5] was 24 µM, the kcat [5] was 0.35 s⁻¹ and the kcat/Km [5] was 14600 M⁻¹ s⁻¹. The Km [6] was 160 µM.

Work on “Agrobacterium tumefaciens anthranilate synthase variant P293G, SEQ ID NO:64 (Agrobacterium fabrum str. C58; P293G)” yielded a Km [7] of 33 µM, a kcat [7] of 0.48 s⁻¹ and a kcat/Km [7] of 14500 M⁻¹ s⁻¹. The Km [8] was 70 µM.

Molecule “Agrobacterium tumefaciens anthranilate synthase variant S50K, SEQ ID NO:69 (Agrobacterium fabrum str. C58; S50K)” has a Km [9] of 13 µM, a kcat [9] of 0.13 s⁻¹ and a kcat/Km [9] of 10000 M⁻¹ s⁻¹. It also gave a Km [10] of 10 µM.

“Agrobacterium tumefaciens anthranilate synthase variant S51C, SEQ ID NO:61 (Agrobacterium fabrum str. C58; S51C)” was tested, and the Km [11] was 2.8 µM, the kcat [11] was 0.15 s⁻¹ and the kcat/Km [11] was 53600 M⁻¹ s⁻¹. It also gave a Km [12] of 80 µM.

With “Agrobacterium tumefaciens anthranilate synthase variant S51F, SEQ ID NO:60 (Agrobacterium fabrum str. C58; S51F)” the Km [13] was 10 µM, the kcat [13] was 0.08 s⁻¹ and the kcat/Km [13] was 8000 M⁻¹ s⁻¹. It also gave a Km [14] of 60 µM.

B1: F298A (protein)
chain: MVTIIQDDGAETYETKGGIQVSRKRRPTDYANAIDNYIEKLDSHRGAVFSSNYEYPGRYTRWDTAIVDPPLGISCFGRKMWIEAYNGRGEVLLDFITEKLKATPDLTLGASSTRRLDLTVNEPDRVFTEEERSKIPTVFTALRAIVDLFYSSADSAIGLFGAFGYDLAFQFDAIKLSLARPEDQRDMVLFLPDEILVVDHYSAKAWIDRYDFEKDGMTTDGKSSDITPDPFKTTDTIPPKGDHRPGEYSELVVKAKESFRRGDLFEVVPGQKFMERCESNPSAISRRLKAINPSPYSAFINLGDQEYLVGASPEMFVRVSGRRIETCPISGTIKRGDDPIADSEQILKLLNSKKDESELTMCSDVDRNDKSRVCEPGSVKVIGRRQIEMYSRLIHTVDHIEGRLRDDMDAFDGFLSHAWAVTVTGAPKLWAMRFIEGHEKSPRAWYGGAIGMVGFNGDMNTGLTLRTIRIKDGIAEVRAGATLLNDSNPQEEEAETELKASAMISAIRDAKGTNSAATKRDAAKVGTGVKILLVDHEDSFVHTLANYFRQTGATVSTVRSPVAADVFDRFQPDLVVLSPGPGSPTDFDCKATIKAARARDLPIFGVCLGLQALAEAYGGELRQLAVPMHGKPSRIRVLEPGLVFSGLGKEVTVGRYHSIFADPATLPRDFIITAESEDGTIMGIEHAKEPVAAVQFHPESIMTLGQDAGMRMIENVVVHLTRKAKTKAA
B1 was tested, and the “kcat” value [15] was 0.46 s⁻¹, the Km [15, 16] was 9.2 µM and the Km [15, 17] was 100 µM. The IC50 [15, 18] was 5.5 µM.

B2: F298W (protein)
chain: MVTIIQDDGAETYETKGGIQVSRKRRPTDYANAIDNYIEKLDSHRGAVFSSNYEYPGRYTRWDTAIVDPPLGISCFGRKMWIEAYNGRGEVLLDFITEKLKATPDLTLGASSTRRLDLTVNEPDRVFTEEERSKIPTVFTALRAIVDLFYSSADSAIGLFGAFGYDLAFQFDAIKLSLARPEDQRDMVLFLPDEILVVDHYSAKAWIDRYDFEKDGMTTDGKSSDITPDPFKTTDTIPPKGDHRPGEYSELVVKAKESFRRGDLFEVVPGQKFMERCESNPSAISRRLKAINPSPYSWFINLGDQEYLVGASPEMFVRVSGRRIETCPISGTIKRGDDPIADSEQILKLLNSKKDESELTMCSDVDRNDKSRVCEPGSVKVIGRRQIEMYSRLIHTVDHIEGRLRDDMDAFDGFLSHAWAVTVTGAPKLWAMRFIEGHEKSPRAWYGGAIGMVGFNGDMNTGLTLRTIRIKDGIAEVRAGATLLNDSNPQEEEAETELKASAMISAIRDAKGTNSAATKRDAAKVGTGVKILLVDHEDSFVHTLANYFRQTGATVSTVRSPVAADVFDRFQPDLVVLSPGPGSPTDFDCKATIKAARARDLPIFGVCLGLQALAEAYGGELRQLAVPMHGKPSRIRVLEPGLVFSGLGKEVTVGRYHSIFADPATLPRDFIITAESEDGTIMGIEHAKEPVAAVQFHPESIMTLGQDAGMRMIENVVVHLTRKAKTKAA
With B2 the “kcat” value [15] was 0.44 s⁻¹, the Km [15, 16] was 18 µM and the Km [15, 17] was 140 µM. It also gave an IC50 [15, 18] of 450 µM.
